# From patent US20190016800A1
# pKd: −log10 of the molar value.
# Target: cynomolgus monkey LAG-3 protein (Cat#LA3-C52A0, Acrobiosystems) (cynomolgus monkey)
# Assay: BLI ForteBio Octet RED 96, biotin labeled antibody on streptavidin sensor, antigen 3.125-100 nM, 1:1 fit
substance,measurement,value
"LAG3.5 (BMS-986016, developed by Bristol-Myers Squibb) (antibody)",pKd,8.65
